19 molecules from the FLAb antibody collection (doi:10.1101/2023.12.08.570889) can be followed below.

Residue numbers refer to the chain shown, from its start.

For orientation: Kd means the concentration at which binding is half-saturated. The low end stands for a tighter complex, the high end for a looser complex.

B1: unnamed (protein)
chain 1: QMQLVESGGGVVQPGRSLRLSCAASGFTFRTYGMHWVRQAPGKGLEWVAVIWYDGSNKHYADSVKGRFTITRDNSKNTLNLQMNSLRAEDTAVYYCARAPRYDERWEAFDVWGQGTMVTVSS
chain 2: SYVLTQPPSVSVAPGQTARITCGGNNLGSKSVHWYQQKPGQAPVLVVYDDSDRPSWIPERFSGSNSGNTATLTISRGEAGDEADYYCQVWDSSSDHVVFGGGTKLTVL
B2: unnamed (protein)
chain 1: B1 chain 1 with E104W, R105Y, W106Y
chain 2: B1 chain 2
B3: unnamed (protein)
chain 1: B1 chain 1 with E104Y, R105Y
chain 2: B1 chain 2
B4: unnamed (protein)
chain 1: B1 chain 1 with E104Y, R105Y, W106Y
chain 2: B1 chain 2
B5: unnamed (protein)
chain 1: B1 chain 1 with R105E, W106Y
chain 2: B1 chain 2
B6: unnamed (protein)
chain 1: B1 chain 1 with E104W, R105T, W106Y
chain 2: B1 chain 2
B7: unnamed (protein)
chain 1: B1 chain 1 with R105H, W106Y
chain 2: B1 chain 2
B8: unnamed (protein)
chain 1: B1 chain 1 with D103Y, E104D, R105Y, W106Y
chain 2: B1 chain 2
B9: unnamed (protein)
chain 1: B1 chain 1 with D103Y, E104W, R105Y
chain 2: B1 chain 2
B10: unnamed (protein)
chain 1: B1 chain 1 with R105T
chain 2: B1 chain 2
B11: unnamed (protein)
chain 1: B1 chain 1 with D103Y, R105Y
chain 2: B1 chain 2
B12: unnamed (protein)
chain 1: B1 chain 1 with R105Y
chain 2: B1 chain 2
B13: unnamed (protein)
chain 1: B1 chain 1 with D103Y, R105Y, W106L
chain 2: B1 chain 2
B14: unnamed (protein)
chain 1: B1 chain 1 with E104D, R105Y, W106Y, E107D
chain 2: B1 chain 2
B15: unnamed (protein)
chain 1: B1 chain 1 with E104D, R105D
chain 2: B1 chain 2
B16: unnamed (protein)
chain 1: B1 chain 1 with D103Y, E104D, R105Y, W106L
chain 2: B1 chain 2
B17: unnamed (protein)
chain 1: B1 chain 1 with A99S, E104W, R105Y, W106Y
chain 2: B1 chain 2
B18: unnamed (protein)
chain 1: B1 chain 1 with E104W, R105Y, W106V
chain 2: B1 chain 2
B19: unnamed (protein)
chain 1: B1 chain 1 with D103Y, R105A, W106Y
chain 2: B1 chain 2

The target of the test is TSLP, Q969D9. The test is described as follows: Kd (SPR).
In turn, B1 yielded a Kd of 494 nM. In other words, the sub-micromolar range.

B2 came in with a Kd of 48.2 nM.

Molecule B3 showed a Kd of 175 nM.

Molecule B4 showed a Kd of 138 nM.

B5: the Kd was determined as 78.9 nM. Compared with the last molecule, the Kd is about 1.7-fold lower.

B6 came in with a Kd of 128 nM. This Kd is about 1.6-fold higher than that of the molecule before.

B7 yielded a Kd of 168 nM.

B8 yielded a Kd of 33.2 nM.

In the case of B9, the Kd amounted to 23.6 nM. The Kd values of the last two molecules are within 1.5-fold of each other.

In turn, B10 gave a Kd of 141 nM.

Turning to B11, the Kd was found to be 29.2 nM.

In turn, B12 yielded an equilibrium dissociation constant (Kd) of 84.9 nM.

B13 showed a Kd of 31.9 nM. Against the preceding molecule, the Kd is about 2.7-fold lower.

In the case of B14, the Kd worked out at 163 nM.

B15: the Kd was found to be 82.7 nM.

With B16, the Kd was 22.6 nM.

In turn, B17 registered a Kd of 122 nM.

The molecule B18 had a Kd of 54.2 nM.

With B19, the Kd amounted to 31 nM. Compared with the last molecule, the Kd is about 1.7-fold lower.
